Reference: PMC5018734
Positions count from the first letter of the chain named. Names may count otherwise.

Target: T1, human P2X1 receptor, wild type subunit (human) (UniProt P51575)
T1 sequence: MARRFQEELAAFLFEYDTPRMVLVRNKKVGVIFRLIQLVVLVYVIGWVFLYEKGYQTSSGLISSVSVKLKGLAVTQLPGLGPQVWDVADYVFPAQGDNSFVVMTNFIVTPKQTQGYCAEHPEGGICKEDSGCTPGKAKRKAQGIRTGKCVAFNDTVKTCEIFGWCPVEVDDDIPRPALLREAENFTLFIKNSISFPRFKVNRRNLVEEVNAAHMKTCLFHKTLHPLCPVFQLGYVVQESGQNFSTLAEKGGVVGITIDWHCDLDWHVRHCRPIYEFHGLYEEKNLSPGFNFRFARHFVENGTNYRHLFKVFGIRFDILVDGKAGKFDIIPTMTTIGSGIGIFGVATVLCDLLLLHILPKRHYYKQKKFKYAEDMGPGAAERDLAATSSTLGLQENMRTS

- ATP (100 uM) evoked decrease in MTS-TAMRA fluorescence (voltage clamp fluorometry) in oocytes co-expressing WT and K68A-K190C subunits; neither homomer shows a fluorescence change: 3%
B1: human P2X1 receptor K190C-K68A double mutant subunit (receptor)
chain: T1 sequence with K68A, K190C
modifications: labelled with the cysteine reactive fluorophore MTS-TAMRA (K190C)
